The target in this experiment is SlGrx9-nLUC. The experiment can be described thus: luciferase complementation assay (LCA) in N. benthamiana leaves, quantified with ImageJ. Conditions: parent: est. 6.1; read off a plot.

For the substance cLUC-SlTrxh (from UniProt Q9LKW0) C54W, the response was 15.
For cLUC-SlTrxh (from UniProt Q9LKW0) C54S, the response was 6.

Values taken from paper PMC11374535.
